Test results as given in publication PMC6459835, “The RNA binding activity of the first identified trypanosome protein with Z-DNA-binding domains”.

Legend:
RBP7910 WT [1] = target: T1, RBP7910 WT (Trypanosoma brucei, UniProt Q38AH3 9-189); assay: competition; conditions: RBB50: 20 mM Tris-HCl pH 7.6, 50 mM KCl, 5 mM MgCl2, 100 mg/mL BSA (so in the source), 10% glycerol, 1 mM DTT, plus 100 mM KCl and 20 U RNasin; 20 ul, 30 min, RT …
T1 sequence: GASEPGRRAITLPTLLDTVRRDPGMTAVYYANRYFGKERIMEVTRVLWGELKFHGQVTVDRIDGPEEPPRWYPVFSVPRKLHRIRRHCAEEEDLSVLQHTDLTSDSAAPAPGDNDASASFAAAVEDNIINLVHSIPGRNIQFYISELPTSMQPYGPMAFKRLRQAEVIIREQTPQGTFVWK

RBP7910 WT [2] = target: T1, RBP7910 WT; assay: EMSA; conditions: RBB50: 20 mM Tris-HCl pH 7.6, 50 mM KCl, 5 mM MgCl2, 100 mg/mL BSA (so in the source), 10% glycerol, 1 mM DTT, plus 100 mM KCl and 20 U RNasin, 20 ul, 30 min, RT …
[3] = target: T2, RBP7910 WT (Trypanosoma brucei) (UniProt Q38AH3); assay: competition; conditions: RBB50: 20 mM Tris-HCl pH 7.6, 50 mM KCl, 5 mM MgCl2, 100 mg/mL BSA (so in the source), 10% glycerol, 1 mM DTT, plus 100 mM KCl and 20 U RNasin, 20 ul, 30 min, RT …
T2 sequence: T1 sequence

RBP7910 WT [4] = target: T1, RBP7910 WT; assay: EMSA; 95% CI 1.25-1.97; RBB50: 20 mM Tris-HCl pH 7.6, 50 mM KCl, 5 mM MgCl2, 100 mg/mL BSA (so in the source), 10% glycerol, 1 mM DTT, plus 100 mM KCl and 20 U RNasin; 20 ul, 30 min, RT; native 10% TBE gel at 4 C; conditions: protein: recombinant; tags: N-terminal 6xHis (pET30-a); label: 32P (UTP body or 3' pCp)
RBP7910 WT [5] = target: T1, RBP7910 WT; assay: competition; vs labeled gA6[14]; RBB50: 20 mM Tris-HCl pH 7.6, 50 mM KCl, 5 mM MgCl2, 100 mg/mL BSA (so in the source), 10% glycerol, 1 mM DTT, plus 100 mM KCl and 20 U RNasin; 20 ul, 30 min, RT; native 10% TBE gel at 4 C; conditions: protein: recombinant; tags: N-terminal 6xHis (pET30-a); label: unlabeled; one predicted stem-loop, 3' oligo(U) tail
RBP7910 WT [6] = target: T1, RBP7910 WT; assay: EMSA; 1 nM labeled RNA, protein titration; specificity confirmed with unlabeled poly AU; RBB50: 20 mM Tris-HCl pH 7.6, 50 mM KCl, 5 mM MgCl2, 100 mg/mL BSA (so in the source), 10% glycerol, 1 mM DTT, plus 100 mM KCl and 20 U RNasin; 20 ul, 30 min, RT; native 10% TBE gel at 4 C; conditions: protein: recombinant; tags: N-terminal 6xHis (pET30-a); label: 32P

Molecule: CYb pre-edited mRNA
- binding signal (% reduction of bound labeled gA6[14]) (RBP7910 WT [1]): 50
- Kd (RBP7910 WT [2]; 95% CI 2.09-3.66): 2.78 nM

Molecule: gA6[14] (delta16G) gRNA with U-tail
- Kd (RBP7910 WT [2]; 95% CI 0.18-0.27): 0.21 nM

Molecule: GGGGGGACUGACAUUAAAAGAAAUGUGAAUUUUUCUCCGCUUUU [42-mer CYb gRNA (gCYb[558] USD-2A-42nt), no U-tail]
- binding signal ([3]; scale: fold less efficient competitor than natural gCYb): 10

Molecule: poly U RNA
- binding signal (% reduction of bound labeled poly AU) (RBP7910 WT [1]): 50

Molecule: GGGAUUAAAAGACAAUGUGAAUUUCUUAAGGUAAUAAAGGGAAUAAUUUUUUUUUUUUUUUU [natural CYb gRNA (gCYb[558]) with U-tail]
- binding signal (% reduction of bound labeled gA6[14]) [3]: 50

B1: CYb edited mRNA (ssRNA)
RNA: GGGAAAUAUGUUUUUUCGUGUUAGAUUUUUGUUAUUUUUUUUAUUAUUUAGAAAUUUAUGUUGUCUUUUUA
- Kd (RBP7910 WT [4]): 1.57 ± 0.06 nM

B2: uridylated non-guide RNA (49 nt) (structured_RNA)
RNA: GGGUACCAGAUACAUACUAAGGAAUUCGAUAUCACUAUUUUUUUUUUUUUU
- binding signal (RBP7910 WT [5]): 10 fold less efficient competitor than gA6[14]

B3: poly AU RNA (ssRNA)
RNA: GGGAUUCUUUUCGAGUCUCUUUUAUUUAUUUAUUUAUUUAUUUUUUCUCUCUUAUU
- binding result (RBP7910 WT [6]): binds
